From article PMC9352680, “A comprehensive thermodynamic model for RNA binding by the Saccharomyces cerevisiae Pumilio protein PUF4”

Target: T1, PUF4 RNA-binding domain (Saccharomyces cerevisiae, UniProt P25339 537-888)
T1 sequence: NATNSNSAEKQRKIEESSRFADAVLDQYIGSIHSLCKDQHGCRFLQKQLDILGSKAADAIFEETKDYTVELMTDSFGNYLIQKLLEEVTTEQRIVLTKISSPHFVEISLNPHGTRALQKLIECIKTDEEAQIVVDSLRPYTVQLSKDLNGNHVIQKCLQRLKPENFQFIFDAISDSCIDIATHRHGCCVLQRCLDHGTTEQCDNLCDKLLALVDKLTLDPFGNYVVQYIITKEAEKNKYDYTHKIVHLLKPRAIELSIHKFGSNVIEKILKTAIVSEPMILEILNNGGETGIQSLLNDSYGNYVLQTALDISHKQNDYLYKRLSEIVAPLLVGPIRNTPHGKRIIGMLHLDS
Test: Mg; RNA-MaP; 20 mM Na-HEPES pH 7.4, 30 mM KOAc, 0.75 mM MgCl2, 0.1% Tween-20, 5% glycerol, 0.1 mg/mL BSA, 2 mM DTT; 25 C; 0.0125-409.6 nM protein
Details: tags: N-His6-TEV cleaved; C-SNAP kept, Cy3B-labelled; label: tethered on chip by stalled RNA polymerase

Row | Binder | Kd
1 | Id_i_S2_P3E.6_K3.2_C3.3_[T-3A]_[C-2T]_[T-1C]_H3.2_A3.1_F3.1_T3.2 (ssRNA) RNA: UUUGAUUAAUAUGAUAUCGUUCUUUCUAUCUAUAUAUAUAUUCUUUCUCGAUAUCAUAUUAAUCUUU | 170 nM
2 | Id_i_S2_P3E.6_K3.2_C3.3_[T-3A]_[C-2A]_[T-1C]_H3.2_A3.1_F3.1_T3.2 (ssRNA) RNA: UUUGAUUAAUAUGAUAUCGUUCUUUCUAACUAUAUAUAUAUUCUUUCUCGAUAUCAUAUUAAUCUUU | 105 nM
3 | Id_i_S2_P3E.7_K3.3_C3.3_[T-3G]_[C-2T]_[T-1A]_H3.3_A3.1_F3.1_T3.2 (ssRNA) RNA: UUUGAUUAAUAUGAUAUCGUUCUUUCUGUAACACUAUAUAUUCUUUCUCGAUAUCAUAUUAAUCUUU | 5.76 nM
4 | Id_i_S2_P3E.7_K3.3_C3.3_[T-3C]_[C-2T]_[T-1A]_H3.3_A3.1_F3.1_T3.2 (ssRNA) RNA: UUUGAUUAAUAUGAUAUCGUUCUUUCUCUAACACUAUAUAUUCUUUCUCGAUAUCAUAUUAAUCUUU | 214 nM
5 | Id_i_S2_P3E.7_K3.3_C3.3_[T-3C]_[C-2A]_[T-1G]_H3.3_A3.1_F3.1_T3.2 (ssRNA) RNA: UUUGAUUAAUAUGAUAUCGUUCUUUCUCAGACACUAUAUAUUCUUUCUCGAUAUCAUAUUAAUCUUU | 610 nM
6 | Id_i_S2_P3E.7_K3.3_C3.3_[T-3C]_[C-2A]_[T-1C]_H3.3_A3.1_F3.1_T3.2 (ssRNA) RNA: UUUGAUUAAUAUGAUAUCGUUCUUUCUCACACACUAUAUAUUCUUUCUCGAUAUCAUAUUAAUCUUU | 482 nM
7 | Id_i_S2_P3E.7_K3.3_C3.3_[T-3C]_[C-2A]_[T-1A]_H3.3_A3.1_F3.1_T3.2 (ssRNA) RNA: UUUGAUUAAUAUGAUAUCGUUCUUUCUCAAACACUAUAUAUUCUUUCUCGAUAUCAUAUUAAUCUUU | 222 nM
8 | Id_i_S2_P3E.7_K3.3_C3.3_[T-3A]_[C-2G]_[T-1C]_H3.3_A3.1_F3.1_T3.2 (ssRNA) RNA: UUUGAUUAAUAUGAUAUCGUUCUUUCUAGCACACUAUAUAUUCUUUCUCGAUAUCAUAUUAAUCUUU | 429 nM
9 | Id_i_S2_P3E.7_K3.3_C3.3_[T-3A]_[C-2T]_[T-1G]_H3.3_A3.1_F3.1_T3.2 (ssRNA) RNA: UUUGAUUAAUAUGAUAUCGUUCUUUCUAUGACACUAUAUAUUCUUUCUCGAUAUCAUAUUAAUCUUU | 597 nM
10 | UCUCUUCAUAUAUUAUCUCUU (ssRNA) [Ib_S1_P4E.1_K4.1_C4.1_H4.1_[T1C]_[G2A]_A4.1_F4.1_T4.1] | 487 nM
11 | Id_i_S2_P3E.7_K3.3_C3.3_[T-3A]_[C-2T]_[T-1A]_H3.3_A3.1_F3.1_T3.2 (ssRNA) RNA: UUUGAUUAAUAUGAUAUCGUUCUUUCUAUAACACUAUAUAUUCUUUCUCGAUAUCAUAUUAAUCUUU | 708 nM
12 | ACAAACGGUAUAUAUAUAACAAAC (ssRNA) [Id_ii_S3_P3E.3_K3.2_C3.2_[C-2G]_[T-1G]_H3.2_A3.1_F3.1_T3.2] | 550 nM
13 | ACAAACAGUAUAUAUAUAACAAAC (ssRNA) [Id_i_S3_P3E.3_K3.2_C3.2_[C-2A]_[T-1G]_H3.2_A3.1_F3.1_T3.2] | 385 nM
14 | ACAAACAAUAUAUAUAUAACAAAC (ssRNA) [Id_ii_S3_P3E.3_K3.2_C3.2_[C-2A]_[T-1A]_H3.2_A3.1_F3.1_T3.2] | 531 nM
15 | ACAAACGCACACUAUAUAACAAAC (ssRNA) [Id_ii_S3_P3E.4_K3.3_C3.2_[C-2G]_[T-1C]_H3.3_A3.1_F3.1_T3.2] | 1830 nM
16 | ACAAACUCACACUAUAUAACAAAC (ssRNA) [Id_i_S3_P3E.4_K3.3_C3.2_[C-2T]_[T-1C]_H3.3_A3.1_F3.1_T3.2] | > 2300 nM
17 | ACAAACAGACACUAUAUAACAAAC (ssRNA) [Id_ii_S3_P3E.4_K3.3_C3.2_[C-2A]_[T-1G]_H3.3_A3.1_F3.1_T3.2] | > 2300 nM
18 | ACAAACACACACUAUAUAACAAAC (ssRNA) [Id_i_S3_P3E.4_K3.3_C3.2_[C-2A]_[T-1C]_H3.3_A3.1_F3.1_T3.2] | > 2300 nM
19 | ACAAACGGCUAUAUAUAUAACAAAC (ssRNA) [Id_i_S3_P3E.6_K3.2_C3.3_[T-3G]_[C-2G]_[T-1C]_H3.2_A3.1_F3.1_T3.2] | 1360 nM
20 | ACAAACCGGUAUAUAUAUAACAAAC (ssRNA) [Id_i_S3_P3E.6_K3.2_C3.3_[T-3C]_[C-2G]_[T-1G]_H3.2_A3.1_F3.1_T3.2] | 1060 nM
21 | UCUCUUAAUAUAUUAUCUCUU (ssRNA) [Ib_S1_P4E.1_K4.1_C4.1_H4.1_[T1A]_[G2A]_A4.1_F4.1_T4.1] | 564 nM

Row | Binder | Kd
22 | ACAAACCUCUAUAUAUAUAACAAAC (ssRNA) [Id_i_S3_P3E.6_K3.2_C3.3_[T-3C]_[C-2T]_[T-1C]_H3.2_A3.1_F3.1_T3.2] | 219 nM
23 | ACAAACAGGUAUAUAUAUAACAAAC (ssRNA) [Id_i_S3_P3E.6_K3.2_C3.3_[T-3A]_[C-2G]_[T-1G]_H3.2_A3.1_F3.1_T3.2] | 566 nM
24 | ACAAACAAGUAUAUAUAUAACAAAC (ssRNA) [Id_i_S3_P3E.6_K3.2_C3.3_[T-3A]_[C-2A]_[T-1G]_H3.2_A3.1_F3.1_T3.2] | 316 nM
25 | ACAAACGGAACACUAUAUAACAAAC (ssRNA) [Id_i_S3_P3E.7_K3.3_C3.3_[T-3G]_[C-2G]_[T-1A]_H3.3_A3.1_F3.1_T3.2] | 1440 nM
26 | ACAAACCAAACACUAUAUAACAAAC (ssRNA) [Id_i_S3_P3E.7_K3.3_C3.3_[T-3C]_[C-2A]_[T-1A]_H3.3_A3.1_F3.1_T3.2] | > 2300 nM
27 | ACAAACAUCACACUAUAUAACAAAC (ssRNA) [Id_i_S3_P3E.7_K3.3_C3.3_[T-3A]_[C-2T]_[T-1C]_H3.3_A3.1_F3.1_T3.2] | 2250 nM
28 | ACAAACAUAACACUAUAUAACAAAC (ssRNA) [Id_i_S3_P3E.7_K3.3_C3.3_[T-3A]_[C-2T]_[T-1A]_H3.3_A3.1_F3.1_T3.2] | > 2300 nM
29 | Id_i_S4_P3E.2_K3.1_C3.2_[C-2T]_[T-1G]_H3.1_A3.1_F3.1_T3.2 (ssRNA) RNA: UUUGACAACUGAUCGUUCUUUCUUGUGUAUAUAUAUUCUUUCUCGAUCAGUUGUCUUU | 1.47 nM
30 | Id_i_S4_P3E.2_K3.1_C3.2_[C-2T]_[T-1C]_H3.1_A3.1_F3.1_T3.2 (ssRNA) RNA: UUUGACAACUGAUCGUUCUUUCUUCUGUAUAUAUAUUCUUUCUCGAUCAGUUGUCUUU | 0.82 nM
31 | Id_i_S4_P3E.2_K3.1_C3.2_[C-2T]_[T-1A]_H3.1_A3.1_F3.1_T3.2 (ssRNA) RNA: UUUGACAACUGAUCGUUCUUUCUUAUGUAUAUAUAUUCUUUCUCGAUCAGUUGUCUUU | 4.77 nM
32 | UCUCUUUGUAUGUUAUCUCUU (ssRNA) [Ic_S1_P4E.1_K4.1_C4.1_H4.1_A4.1_[A6G]_F4.1_T4.1] | 4.82 nM
33 | UCUCUUAGCAUAUUAUCUCUU (ssRNA) [Ib_S1_P4E.1_K4.1_C4.1_H4.1_[T1A]_[T3C]_A4.1_F4.1_T4.1] | 1930 nM
34 | Id_i_S4_P3E.3_K3.2_C3.2_[C-2T]_[T-1G]_H3.2_A3.1_F3.1_T3.2 (ssRNA) RNA: UUUGACAACUGAUCGUUCUUUCUUGUAUAUAUAUAUUCUUUCUCGAUCAGUUGUCUUU | 4.75 nM
35 | Id_i_S4_P3E.3_K3.2_C3.2_[C-2T]_[T-1C]_H3.2_A3.1_F3.1_T3.2 (ssRNA) RNA: UUUGACAACUGAUCGUUCUUUCUUCUAUAUAUAUAUUCUUUCUCGAUCAGUUGUCUUU | 68.1 nM
36 | Id_ii_S4_P3E.4_K3.3_C3.2_[C-2G]_[T-1C]_H3.3_A3.1_F3.1_T3.2 (ssRNA) RNA: UUUGACAACUGAUCGUUCUUUCUGCACACUAUAUAUUCUUUCUCGAUCAGUUGUCUUU | 30.3 nM
37 | Id_i_S4_P3E.4_K3.3_C3.2_[C-2T]_[T-1C]_H3.3_A3.1_F3.1_T3.2 (ssRNA) RNA: UUUGACAACUGAUCGUUCUUUCUUCACACUAUAUAUUCUUUCUCGAUCAGUUGUCUUU | 202 nM
38 | Id_i_S4_P3E.4_K3.3_C3.2_[C-2A]_[T-1C]_H3.3_A3.1_F3.1_T3.2 (ssRNA) RNA: UUUGACAACUGAUCGUUCUUUCUACACACUAUAUAUUCUUUCUCGAUCAGUUGUCUUU | 295 nM
39 | Id_i_S4_P3E.5_K3.1_C3.3_[T-3C]_[C-2G]_[T-1C]_H3.1_A3.1_F3.1_T3.2 (ssRNA) RNA: UUUGACAACUGAUCGUUCUUUCUCGCUGUAUAUAUAUUCUUUCUCGAUCAGUUGUCUUU | 1.51 nM
40 | Id_i_S4_P3E.5_K3.1_C3.3_[T-3C]_[C-2T]_[T-1G]_H3.1_A3.1_F3.1_T3.2 (ssRNA) RNA: UUUGACAACUGAUCGUUCUUUCUCUGUGUAUAUAUAUUCUUUCUCGAUCAGUUGUCUUU | 1.5 nM
41 | Id_i_S4_P3E.5_K3.1_C3.3_[T-3A]_[C-2T]_[T-1C]_H3.1_A3.1_F3.1_T3.2 (ssRNA) RNA: UUUGACAACUGAUCGUUCUUUCUAUCUGUAUAUAUAUUCUUUCUCGAUCAGUUGUCUUU | 1.98 nM
